The results in this text go back to patent publication US20190270826A1 (Janssen / Centocor, published 2019).

Where two headings read alike, the source gives them in different places.

As usually defined, the Kd is the constant that tells how readily two partners part at equilibrium. In general, koff refers to a measure of how fast the partners let go of each other. In general, kon refers to the second-order rate constant of association.

Experiment [1] has as its target T1, cyno IL1RAP ECD displayed on HEK-293F cells (pDisplay) (cynomolgus monkey, UniProt P59822 21-367 (rhesus entry)).
T1 sequence: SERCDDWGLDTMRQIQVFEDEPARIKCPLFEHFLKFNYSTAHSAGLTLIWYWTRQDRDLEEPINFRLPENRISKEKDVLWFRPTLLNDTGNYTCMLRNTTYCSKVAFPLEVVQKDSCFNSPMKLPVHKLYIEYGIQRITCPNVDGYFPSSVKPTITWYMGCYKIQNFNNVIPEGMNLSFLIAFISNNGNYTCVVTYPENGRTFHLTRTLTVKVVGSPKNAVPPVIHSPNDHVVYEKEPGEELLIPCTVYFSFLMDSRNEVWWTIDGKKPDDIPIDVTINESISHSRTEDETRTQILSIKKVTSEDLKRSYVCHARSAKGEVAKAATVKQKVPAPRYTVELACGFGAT
As to the kind of experiment: HEK-293F cells (MSD).

The target of experiment [2] is T2, recombinant human IL1RAP ECD (human, UniProt Q9NPH3 21-367).
T2 construct: His-tagged; also called hIL1RAP-ECD; rhuIL1RAP
T2 sequence: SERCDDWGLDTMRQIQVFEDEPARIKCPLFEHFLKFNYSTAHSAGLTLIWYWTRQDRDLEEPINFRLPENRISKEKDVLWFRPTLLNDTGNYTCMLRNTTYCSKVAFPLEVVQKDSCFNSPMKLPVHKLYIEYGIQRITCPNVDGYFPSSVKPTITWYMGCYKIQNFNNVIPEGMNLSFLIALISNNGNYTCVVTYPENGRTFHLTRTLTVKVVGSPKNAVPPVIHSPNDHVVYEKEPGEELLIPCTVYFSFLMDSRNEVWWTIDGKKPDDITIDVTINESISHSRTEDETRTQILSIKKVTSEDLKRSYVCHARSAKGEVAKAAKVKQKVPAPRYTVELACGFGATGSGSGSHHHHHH
In words: SPR, summary. Background: Surface plasmon resonance follows binding to a sensor surface in real time, without labels.

In experiment [3] the target is T3, recombinant cyno IL1RAP ECD (cynomolgus monkey, UniProt P59822 21-367 (rhesus entry)).
T3 construct: also called rcynoIL1RAP
T3 sequence: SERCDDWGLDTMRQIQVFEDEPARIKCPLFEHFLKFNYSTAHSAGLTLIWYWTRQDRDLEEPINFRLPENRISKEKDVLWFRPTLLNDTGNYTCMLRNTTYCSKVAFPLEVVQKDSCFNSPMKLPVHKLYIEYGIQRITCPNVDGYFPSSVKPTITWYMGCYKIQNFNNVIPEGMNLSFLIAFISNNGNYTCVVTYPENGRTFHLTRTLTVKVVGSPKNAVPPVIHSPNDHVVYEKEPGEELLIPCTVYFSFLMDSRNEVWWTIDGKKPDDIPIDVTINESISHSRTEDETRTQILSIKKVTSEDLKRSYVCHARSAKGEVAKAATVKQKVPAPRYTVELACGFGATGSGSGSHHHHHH
As to the kind of experiment: recombinant protein.

The target of experiment [4] is T2, recombinant human IL1RAP ECD. In words: SPR; KD against parent IAPB4.
Experiment [5] shares this target. As to the kind of experiment: SPR (ProteOn).
Experiment [6] has the same target. As to the kind of experiment: SPR (ProteOn). This is another data set of the same source.
In experiment [7] the target is T4, mouse IL1RAP ECD displayed on HEK-293F cells (pDisplay) (mouse, UniProt Q61730 21-367).
T4 sequence: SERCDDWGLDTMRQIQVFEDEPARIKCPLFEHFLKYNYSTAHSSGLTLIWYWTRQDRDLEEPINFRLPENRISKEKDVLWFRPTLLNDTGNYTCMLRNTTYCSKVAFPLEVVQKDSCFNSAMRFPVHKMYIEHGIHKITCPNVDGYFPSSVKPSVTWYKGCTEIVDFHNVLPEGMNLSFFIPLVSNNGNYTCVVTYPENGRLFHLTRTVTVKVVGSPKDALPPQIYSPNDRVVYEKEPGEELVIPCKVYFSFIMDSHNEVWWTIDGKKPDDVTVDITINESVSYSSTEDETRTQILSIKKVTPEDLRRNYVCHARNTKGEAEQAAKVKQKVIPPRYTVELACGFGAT
As to the kind of experiment: HEK-293F cells (MSD).

The target of experiment [8] is T5, human IL1RAP ECD displayed on HEK-293F cells (pDisplay) (human, UniProt Q9NPH3 21-367).
T5 construct: also called Human clone HE2 IL1RAP FL-ECD cell line
T5 sequence: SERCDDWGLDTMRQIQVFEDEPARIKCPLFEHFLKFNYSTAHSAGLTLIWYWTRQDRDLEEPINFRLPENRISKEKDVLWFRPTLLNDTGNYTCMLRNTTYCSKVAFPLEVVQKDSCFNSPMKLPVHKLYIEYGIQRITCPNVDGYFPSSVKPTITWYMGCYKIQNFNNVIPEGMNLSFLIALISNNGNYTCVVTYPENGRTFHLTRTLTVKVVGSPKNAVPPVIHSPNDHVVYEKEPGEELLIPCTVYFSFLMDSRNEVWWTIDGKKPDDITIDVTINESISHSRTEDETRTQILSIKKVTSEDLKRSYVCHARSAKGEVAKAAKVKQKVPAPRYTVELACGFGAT
As to the kind of experiment: HEK-293F cells (MSD).

Experiment [9] has as its target T6, rat IL1RAP ECD displayed on HEK-293F cells (pDisplay) (rat, UniProt Q63621 21-367).
T6 sequence: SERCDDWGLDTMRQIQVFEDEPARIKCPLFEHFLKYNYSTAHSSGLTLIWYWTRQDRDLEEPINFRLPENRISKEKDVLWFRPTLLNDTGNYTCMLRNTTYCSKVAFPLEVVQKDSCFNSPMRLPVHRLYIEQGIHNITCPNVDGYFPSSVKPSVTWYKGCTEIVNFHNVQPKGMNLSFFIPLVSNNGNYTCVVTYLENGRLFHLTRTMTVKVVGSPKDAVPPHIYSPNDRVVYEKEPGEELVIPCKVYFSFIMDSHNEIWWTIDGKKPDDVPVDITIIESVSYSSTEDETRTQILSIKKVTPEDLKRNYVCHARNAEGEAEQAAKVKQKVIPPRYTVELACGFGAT
As to the kind of experiment: HEK-293F cells (MSD).

B1: IAPB04 (antibody, human IgG4 S228P, kappa, F234A L235A, V domains shown)
VH: QVQLVQSGAEVKKPGSSVKVSCKASGGTFSSYAISWVRQAPGQGLEWMGGISAIFGTANYAQKFQGRVTITADESTSTAYMELSSLRSEDTAVYYCARHLHNGIHLDYWGQGTLVTVSS
VL: EIVLTQSPATLSLSPGERATLSCRASQSVSNFLAWYQQKPGQAPRLLIYGASNRATGIPARFSGSGSGTDFTLTISSLEPEDFAVYYCQQGKHWPWTFGQGTKVEIKR
notes: IgG4-PAA; also called IAPB4; phage hit B4
B1: the binding result in experiment [1] and in experiment [3] was “binds” each time. Further, the figures for the Kd in experiment [2], in [5] and in experiment [6] were 5.66 nM, 4.73 nM and 5.66 nM, respectively. Besides, in [4], the “Fold Different from parent” value was found to be 1 fold. Also, the figures for the koff in [5] and in experiment [6] were 0.0014 s⁻¹ and 0.00144 s⁻¹, respectively. The kon in experiment [5] turned out to be 295000 M⁻¹ s⁻¹; in experiment [6] it was 255000 M⁻¹ s⁻¹.

B2: IAPB38 (antibody, human IgG4 S228P, kappa, F234A L235A, V domains shown)
VH: EVQLLESGGGLVQPGGSLRLSCAASGFTFSNYAMNWVRQAPGKGLEWVSGINYGGGSKYYADSVKGRFTISRDNSKNTLYLQMNSLRAEDTAVYYCAKDYGPFALDYWGQGTLVTVSS
VL: EIVLTQSPATLSLSPGERATLSCRASQSVDDWLAWYQQKPGQAPRLLIYTASNRATGIPARFSGSGSGTDFTLTISSLEPEDFAVYYCQQYHHWPLTFGQGTKVEIKR
notes: IgG4-PAA; whole chains
Turning to B2, the binding result in experiment [7], in experiment [8], in experiment [1], in [9] and in [3] was “binds” each time.

B3: IAPB65 (antibody, human IgG4 S228P, kappa, F234A L235A, V domains shown)
VH: QVQLVQSGAEVKKPGSSVKVSCKASGGTFSSYAISWVRQAPGQGLEWMGGISAIFGTANYAQKFQGRVTITADESTSTAYMELSSLRSEDTAVYYCARHLHNAIHLDYWGQGTLVTVSS
VL: EIVLTQSPATLSLSPGERATLSCRASQSVSNFLAWYQQKPGQAPRLLIYGASNRATGIPARFSGSGSGTDFTLTISSLEPEDFAVYYCQQGKHWPWTFGQGTKVEIKR
notes: IgG4-PAA; whole chains; also called IAPB4-HC-G103A; IgG4-PAA, B4 mutant
For the molecule B3, in experiment [2], the Kd amounted to 10.4 nM. Also, the “Fold Different from parent” value in experiment [4] worked out at 2.2 fold. In [5], the Kd was 10.4 nM, the koff is 0.00341 s⁻¹ and the on-rate constant (kon) turned out to be 329000 M⁻¹ s⁻¹.

B4: IAPB62 (antibody, human IgG4 S228P, kappa, F234A L235A, V domains shown)
VH: QVQLVQSGSELKKPGASVKVSCKASGYTFNTYAMNWVRQAPGQGLEWMGWINTNTGNPTYAQGFTGRFVFSLDTSVSTAYLQISSLKAEDTAVYYCARRYFDWLLGAFDIWGQGTMVTVSS
VL: DIQMTQSPSSVSASVGDRVTITCRASQGISSWLAWYQQKPGKAPKLLIYAASSLQSGVPSRFSGSGSGTDFTLTISSLQPEDFATYYCQQANSFPLTFGGGTKVEIKR
notes: IgG4-PAA; whole chains
Consider B4, for which the binding result in experiment [8], in experiment [1] and in experiment [3] was “binds” throughout.
